Assays:
[1] = target: filamentous actin (F-actin) from rabbit m. psoas (rabbit) (UniProt P68135); experiment: co-sedimentation; 10 µM F-actin with 0.5 to 7.5 µM Tpm in 30 mM Hepes-Na pH 7.3, 200 mM NaCl; 40 min at 25 °C, then 40 min at 100,000 g at 4 °C; supernatants and pellets by SDS-PAGE; apparent affinity (K50%: Tpm concentration at which half of the actin is saturated)
[2] = target: filamentous actin (F-actin) from rabbit m. psoas (rabbit) (UniProt P68135); experiment: temperature dependence of light scattering; thermally induced dissociation of Tpm from phalloidin-stabilized F-actin; 20 µM F-actin, 10.5 µM Tpm, 30 mM Hepes-Na pH 7.3, 100 mM NaCl; light scattering at 90°, 350 nm, heating 1 °C/min; Tdiss: temperature of a 50% decrease
[3] = viscosimetry; falling-ball micro-viscometer, 20 °C; Tpm 2 mg/mL in 30 mM Hepes-Na pH 7.3, 100 mM NaCl, 4 mM DTT; viscosity over buffer viscosity; end-to-end interaction of adjacent Tpm molecules; settings: other: viscosimetry

Substance | K50% [1] [µM] | Tdiss [2] [°C] | viscosity after subtraction of the buffer viscosity [3] [mPa∙s]
human E98K Tpm1.1 mutant (cardiac tropomyosin 1.1 with Glu98Lys), recombinant, with Ala-Ser N-terminal extension (natural protein) | 2.57 | 42.4 | –
wild-type cardiac tropomyosin 1.1 isoform (Tpm1.1), recombinant, with Ala-Ser N-terminal extension | – | – | 0.31 ± 0.01
human E98K Tpm1.1 mutant (cardiac tropomyosin 1.1 with Glu98Lys), recombinant, with Ala-Ser N-terminal extension | – | – | 0.28 ± 0.01
wild-type cardiac tropomyosin 1.1 isoform (Tpm1.1), recombinant, with Ala-Ser N-terminal extension (natural protein) | 2.45 | 45.5 | –

From article PMC10419091
